Experiments:
[1] = biological target: DENV-2 E protein Domain III (Dengue virus serotype 2, strain Thailand/16681/1984); experiment: BLI, mAb on AR2G biosensor, 20 ug/mL Domain III, 1200 sec
[2] = biological target: DENV-4 E protein Domain III (Dengue virus serotype 4, strain Indonesia/1036/1976); experiment: as above
[3] = biological target: DENV-2 VLP (Dengue virus serotype 2, strain Thailand/16681/84); experiment: Luminex, VLP-coupled beads
[4] = biological target: Dengue Virus Serotype 2 envelope protein (Dengue virus serotype 2, strain Thailand/16681/84); experiment: Luminex bead assay (antigen on MagPlex beads, MFI)

Substance	Response (nm) [1]	Response (nm) [2]	EC50 [3]	EC50 (read off the curve) [4]
3H5 (antibody)	0.488 nm	–	–	–
4G2 (antibody)	0.0174 nm	0.056 nm	–	–
777-2 (DV2-3H5) (antibody)	0.303 nm	–	0.0749 µg/mL	0.06 µg/mL

Source: patent publication US20260167703A1
